From patent publication US20240124575A1 (SIMCERE ZAIMING PHARMACEUTICAL, published 2024) come the findings set out here.

Read-outs that look alike come from different tables or passages of the source.

Assay [1] has as its target T1, monkey CD33-His protein (monkey).
T1 construct: also called monkey CD33 protein
Description: ELISA on coated monkey CD33-his. (In general: An ELISA detects its analyte on a solid surface through an enzyme-linked reagent.)

For assay [2], the target named is T2, human CD33-His (extracellular domain Asp 18-His 259) (human, UniProt P20138 18-259).
T2 construct: range 18-259; bought protein; also called hCD33-his; human CD33 protein; not shown: His tag
T2 sequence (P20138 18-259 limits assumed): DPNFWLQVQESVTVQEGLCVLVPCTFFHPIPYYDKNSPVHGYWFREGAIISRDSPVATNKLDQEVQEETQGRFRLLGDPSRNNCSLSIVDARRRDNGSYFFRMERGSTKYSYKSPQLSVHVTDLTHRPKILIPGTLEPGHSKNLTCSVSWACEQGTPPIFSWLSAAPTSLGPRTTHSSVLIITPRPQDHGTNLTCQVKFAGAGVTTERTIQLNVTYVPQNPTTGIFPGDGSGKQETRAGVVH
Nature of the assay: competitive ELISA vs coated S006-NB146-16 3ug/mL; soluble 25ug/ml.

Assay [3] concerns the target T2, human CD33-His (extracellular domain …). Description: competitive ELISA vs coated S006-NB146-173 3ug/mL; soluble 25ug/ml.
The target is the same in assay [4]. Nature of the assay: competitive ELISA vs coated S006-NB146-39 2ug/mL; soluble 25ug/ml. As for the experimental part:
VHH antibodies and control antibodies with known epitopes were subjected to epitope classification with competitive ELISA. ELISA plates were coated with 2 μg/mL antibodies according to the method in Example 5.1; the human CD33-his protein was subjected to a gradient dilution from 30 μg/mL, and EC80 values (Tables 26-27) were calculated. ELISA plates were coated with 2 μg/mL antibodies; after 25 µg/mL of antibodies to be tested were added, a human CD33-his protein having an EC80 concentration corresponding to each of the antibodies to be tested was then added for incubation for 2 h. The plates were washed 5 times with PBS, then HRP-labeled anti-His antibodies (purchased from GenScript, Cat. No. A00612) were added for incubation for 1 h, and the plates were washed 5 times. A TMB substrate was added at 50 μL/well and incubated at room temperature for 10 min, then a stop solution (1.0 M HCl) was added at 50 μL/well. OD_{450 nm} values were read using an ELISA plate reader (Insight, purchased from PerkinElmer), and the competition rate between the antibodies was calculated according to the OD_{450 nm} values using a formula. The results are shown in FIGS. 12A-12B, the higher the value of the competition rate, the closer the epitopes to which two antibodies bind.

The target in assay [5] is T3, human CD33-C2-his (human, UniProt P20138 136-260).
T3 construct: expressed in HEK293E; also called hCD33-C2-his; human CD33 protein C2-domain; not shown: His tag
T3 sequence (P20138 other isoform, or with tags, fused parts or gaps limits assumed): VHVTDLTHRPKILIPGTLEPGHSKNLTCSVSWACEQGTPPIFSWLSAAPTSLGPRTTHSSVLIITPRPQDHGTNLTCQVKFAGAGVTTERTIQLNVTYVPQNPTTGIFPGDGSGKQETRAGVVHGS
Description: ELISA on coated human CD33-C2-his. From the text:
(§1) Plates were coated with human CD33-V-his (membrane distal end) and human CD33-C2-his (membrane proximal end), respectively, according to the ELISA method in Example 8. The VHH humanized antibodies were classified based on the membrane distal end and the membrane proximal end, as shown in FIGS. 20A-20J and Table 44, which allowed the classification of the VHH humanized antibodies into the following classes: […]

Assay [6] addresses T3, human CD33-C2-his. Nature of the assay: ELISA on coated human CD33-C2-his.
From the text: as §1
This is another data set of the same source.

Assay [7] has as its target T4, human CD33-his protein (human, UniProt P20138 18-259).
T4 construct: range 18-259; bought protein; also called hCD33-his; recombinant human CD33-his; not shown: His tag
Nature of the assay: competition ELISA, coated human CD33-his, vs Biotin-C33B904 at EC80; antibody 3.91 nM. As for the experimental part:
(§2) The plate was sealed with a plastic film and incubated at 4° C. overnight, washed twice with PBS the next day, and a blocking solution [PBS+2% (w/w) BSA] was added for blocking at room temperature for 2 h. The blocking solution was discarded, and VHH-Fc antibody or negative control antibody serially diluted from 100 nM was added at 50 μL/well. After incubation at 37° C. for 2 h, the plate was washed 3 times with PBS. A secondary antibody labeled with HRP (horseradish peroxidase) (purchased from Sigma, Cat. No. A0170) was added. After incubation for 1 h at 37° C., the plate was washed 5 times with PBS. A TMB substrate was added at 50 μL/well. After incubation at room temperature for 10 min, a stop solution (1.0 N HCl) was added at 50 μL/well. The OD450 nm values were read on an ELISA plate reader (Multimode Plate Reader, EnSight, purchased from Perkin Elmer). The assay results for the binding of the VHH-Fc to hCD33-his by ELISA are shown in FIGS. 7A and 7B and Tables 11 and 12. […] The IgG control was hIgG1, and the data in the table are OD450 nm values.
(§3) ELISA plates were coated with 2 μg/mL human CD33-his protein according to the method in Example 5.1; the Biotin-C331B904 antibody was subjected to a gradient dilution from 15 μg/mL, and EC80 values (0.18 μg/mL) were calculated. […] OD_{450 nm} values were read using an ELISA plate reader (Insight, purchased from PerkinElmer). […]

The target in assay [8] is T4, human CD33-his protein. Description: competition ELISA, coated human CD33-his, vs Biotin-C33B904 at EC80; antibody 0 nM (no competitor). How it is done: (§4) ELISA plates were coated with 2 μg/mL human CD33-his protein according to the method in Example 5.1; the Biotin-C331B904 antibody was subjected to a gradient dilution from 15 μg/mL, and EC80 values (0.18 μg/mL) were calculated. ELISA plates were coated with 2 μg/mL human CD33-his protein; starting from 40 μg/mL, the VHH antibodies to be tested were diluted in a 1:2 dilution ratio to obtain seven concentrations and added to the ELISA plates, and then Biotin-C331904 antibodies with the EC80 concentrations were added for incubation for 2 h. The plates were washed 5 times with PBS and then […] (purchased from Sigma, Cat. No. S2438) were added for incubation for 1 h, and the plates were washed 5 times. A TMB substrate was added at 50 μL/well and incubated at room temperature for 10 min, then a stop solution (1.0 M HCl) was added at 50 μL/well. OD_{450 nm} values were read using an ELISA plate reader (Insight, purchased from PerkinElmer). Then, analysis was performed by software (GraphPad Prism8), and data were fitted for curve plotting. The results are shown in FIGS. 13A-13B and Tables 28 and 29.

In assay [9] the target is T4, human CD33-his protein. Description: competition ELISA, coated human CD33-his, vs Biotin-C33B904 at EC80; antibody 7.81 nM. How it is done: as §4
Assay [10] concerns the target T4, human CD33-his protein. Description: competition ELISA, coated human CD33-his, vs Biotin-C33B904 at EC80; antibody 15.63 nM. How it is done:
as §2, §3

The target of assay [11] is T5, monkey CD33-his protein (monkey).
T5 construct: bought protein; also called monkey CD33 protein (Sino Biological, Cat. No. 50712-M08H)
Description: SPR (Biacore), antibody captured on Protein A chip, monkey CD33 analyte.

T4 sequence (P20138 18-259 limits assumed): as the sequence (P20138 18-259 limits assumed) above

B1: C33B904 hIgG1 (antibody, V domains shown)
VH: EVQLVESGGGLVQPGRSLRLSCAASGFTFDDYAMHWVRQAPGKGLEWVSGIGWSGGSIVYADSVKGRFTISRDNAKNSLYLQMNSLRAEDTALYYCAKDSPYGDFFDYWGQGTLVTVSS
VL: DIVMTQSPDSLAVSLGERATINCKSSQTVFYSSNNKNYLAWYQQKPGQPPKLLISWASTRKSGVPDRFSGSGSGTDFTLTVSSLQAEDVAVYYCQHYYSTPYTFGQGTKLEIKR
notes: intact human IgG1; variable regions from US20190382481A1; also called C33B3904; C331B904
For B1, the figures for the “EC50 (read off the curve)” value in assay [1], in assay [5] and in [6] were around 0.3 nM, around 0.1 nM and around 0.2 nM, respectively. Besides, the inhibition rate in assay [2] worked out at 100%; in assay [3], 100%; in assay [4] it was 85%.

B2: C33B904 (antibody, human IgG1, kappa, V domains shown)
VH: B1 VH
VL: B1 VL
notes: control antibody, intact human IgG1 form; variable regions from US20190382481A1; also called C33B904 hIgG1; C331B904
With B2, the “OD450 (Biotin-C33B904 signal)” value in assay [7] amounted to 2.25; in [8], 2.33; in assay [9], 1.11; in assay [10], 0.88. Moreover, the affinity in assay [11], expressed as Kd, was 0.565 nM. In addition, in assay [11], the koff (in general, the rate constant with which the complex falls apart) was determined as 0.000626 s⁻¹. The kon (commonly the rate constant with which the complex forms) in assay [11] was 1.11e+06 M⁻¹ s⁻¹.
